Biological target: T1, NADPH-cytochrome P450 reductase (human (endogenous in human liver microsomes)) (UniProt P16435)
T1 sequence: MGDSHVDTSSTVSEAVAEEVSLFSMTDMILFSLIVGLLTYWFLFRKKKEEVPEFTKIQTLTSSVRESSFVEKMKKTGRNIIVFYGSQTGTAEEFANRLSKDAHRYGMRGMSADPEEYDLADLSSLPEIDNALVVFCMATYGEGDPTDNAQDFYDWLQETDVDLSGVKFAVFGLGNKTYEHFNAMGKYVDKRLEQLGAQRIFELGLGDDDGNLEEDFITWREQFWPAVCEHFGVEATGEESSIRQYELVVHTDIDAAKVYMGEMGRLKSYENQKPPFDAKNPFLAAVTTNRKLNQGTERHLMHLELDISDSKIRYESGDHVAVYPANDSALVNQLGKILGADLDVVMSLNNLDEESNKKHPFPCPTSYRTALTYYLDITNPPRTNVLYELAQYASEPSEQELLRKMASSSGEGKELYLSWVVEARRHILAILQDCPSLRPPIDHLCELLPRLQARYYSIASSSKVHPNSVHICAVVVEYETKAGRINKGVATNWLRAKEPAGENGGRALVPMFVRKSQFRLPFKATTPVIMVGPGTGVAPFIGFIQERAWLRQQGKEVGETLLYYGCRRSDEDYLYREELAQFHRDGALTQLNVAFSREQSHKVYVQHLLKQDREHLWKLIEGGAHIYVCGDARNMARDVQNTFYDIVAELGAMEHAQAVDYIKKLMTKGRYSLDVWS

- Vmax of 7-EFC deethylation by CYP2E1-BPM incorporated into insect cell microsomes with cDNA-expressed human CPR and cytochrome b5 (SS(CPR+b5)2E1-BPM), normalised per CPR: 0.104 s⁻¹
- Vmax of 7-EFC deethylation by CYP2E1-BPS incorporated into insect cell microsomes with cDNA-expressed human CPR and cytochrome b5 (SS(CPR+b5)2E1-BPS), normalised per CPR: 1.51 s⁻¹
Substance: C-terminally His-tagged and N-terminally truncated Δ3–20 CYP2E1 modified with benzophenone-4-maleimide (BPM) or 4-(N-succinimidylcarboxy)benzophenone (BPS) (from UniProt P05181 1-493) (enzyme)

From publication PMC8869672
